{"source": "patent US20140315800A1", "about": "(published 2014)", "binders": {"B1": {"name": "3C(disialo)-R-K-SRIF14 (peptide)", "peptide": "CCCRKAGCKNFFWKTFTSC", "modifications": "three N-terminal Cys each with a disialo sugar chain (Cys-Cys-Cys-Arg-Lys- added to SRIF14); disulfide Cys17-Cys28 (SRIF28 numbering)"}, "B2": {"name": "C(disialo)-SRIF14 (peptide)", "peptide": "CAGCKNFFWKTFTSC", "modifications": "disialo sugar chain on Cys added at the N-terminus of SRIF14; disulfide Cys17-Cys28 (SRIF28 numbering)"}, "B3": {"name": "S1-3C(asialo)-SRIF28 (peptide)", "peptide": "CCCANSNPAMAPRERKAGCKNFFWKTFTSC", "modifications": "Ser 1 replaced by three consecutive Cys each with an asialo sugar chain; disulfide Cys17-Cys28 (SRIF28 numbering)"}, "B4": {"name": "S1-5C(disialo)-SRIF28 (peptide)", "peptide": "CCCCCANSNPAMAPRERKAGCKNFFWKTFTSC", "modifications": "Ser 1 replaced by five consecutive Cys each with a disialo sugar chain; disulfide Cys17-Cys28 (SRIF28 numbering)"}}, "key": {"SSTR3 [1]": {"molecular_target": "T1, SSTR3 (Human, UniProt P32745 1-418)", "T1 sequence (P32745 whole entry)": "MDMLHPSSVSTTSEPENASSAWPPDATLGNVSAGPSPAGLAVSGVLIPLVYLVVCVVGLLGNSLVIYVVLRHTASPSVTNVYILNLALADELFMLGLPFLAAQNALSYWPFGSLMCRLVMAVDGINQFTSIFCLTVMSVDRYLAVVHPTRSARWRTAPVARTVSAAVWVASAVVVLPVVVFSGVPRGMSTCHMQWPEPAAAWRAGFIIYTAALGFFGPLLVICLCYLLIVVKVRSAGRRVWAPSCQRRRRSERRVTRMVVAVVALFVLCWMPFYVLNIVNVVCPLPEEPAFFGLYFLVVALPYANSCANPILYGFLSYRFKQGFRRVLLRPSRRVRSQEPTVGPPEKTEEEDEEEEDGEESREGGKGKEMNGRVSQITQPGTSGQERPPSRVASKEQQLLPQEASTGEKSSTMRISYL", "assay": "radioligand competition, membranes"}, "SSTR5": {"molecular_target": "SSTR5 (Human, UniProt P35346 1-364)", "sequence (P35346 whole entry)": "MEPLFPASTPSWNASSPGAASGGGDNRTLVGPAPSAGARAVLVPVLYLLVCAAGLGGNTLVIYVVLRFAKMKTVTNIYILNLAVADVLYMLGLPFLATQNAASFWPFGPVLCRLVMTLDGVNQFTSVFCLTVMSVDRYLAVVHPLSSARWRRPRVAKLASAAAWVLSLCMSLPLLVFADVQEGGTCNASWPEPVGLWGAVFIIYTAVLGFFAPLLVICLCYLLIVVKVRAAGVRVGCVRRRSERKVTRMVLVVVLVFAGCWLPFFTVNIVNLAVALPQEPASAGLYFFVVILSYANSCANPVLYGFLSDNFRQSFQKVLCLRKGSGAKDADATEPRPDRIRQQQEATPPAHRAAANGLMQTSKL", "assay": "radioligand competition, membranes"}, "SSTR1-SSTR5": {"molecular_target": "SSTR1-SSTR5", "assay": "radioligand competition, membranes"}, "SSTR2": {"molecular_target": "SSTR2 (Human, UniProt P30874 1-369)", "sequence (P30874 whole entry)": "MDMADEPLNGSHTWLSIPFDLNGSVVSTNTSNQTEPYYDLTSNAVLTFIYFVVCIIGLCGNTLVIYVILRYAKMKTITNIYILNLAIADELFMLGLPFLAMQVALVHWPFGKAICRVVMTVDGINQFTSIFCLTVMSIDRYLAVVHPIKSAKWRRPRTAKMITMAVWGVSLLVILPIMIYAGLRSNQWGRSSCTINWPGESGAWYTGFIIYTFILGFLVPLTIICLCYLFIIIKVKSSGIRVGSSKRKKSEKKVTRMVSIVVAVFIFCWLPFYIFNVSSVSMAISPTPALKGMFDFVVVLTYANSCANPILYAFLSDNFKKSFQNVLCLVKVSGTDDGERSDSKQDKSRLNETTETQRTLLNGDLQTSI", "assay": "cell-based or functional assay"}, "SSTR4 [2]": {"molecular_target": "T2, SSTR4 (Human, UniProt P31391 1-388)", "T2 sequence (P31391 whole entry)": "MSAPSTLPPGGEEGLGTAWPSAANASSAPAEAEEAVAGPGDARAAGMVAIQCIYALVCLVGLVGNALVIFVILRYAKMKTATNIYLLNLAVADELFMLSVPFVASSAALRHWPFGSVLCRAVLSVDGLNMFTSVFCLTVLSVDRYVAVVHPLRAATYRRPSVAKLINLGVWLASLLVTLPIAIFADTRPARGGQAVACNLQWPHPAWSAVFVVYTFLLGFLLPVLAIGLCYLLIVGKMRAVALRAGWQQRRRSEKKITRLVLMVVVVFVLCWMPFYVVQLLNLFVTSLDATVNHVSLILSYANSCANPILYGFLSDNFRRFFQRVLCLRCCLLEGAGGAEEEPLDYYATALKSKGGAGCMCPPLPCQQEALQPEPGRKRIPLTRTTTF", "assay": "cell-based or functional assay"}, "SSTR1 [3]": {"molecular_target": "T3, SSTR1 (Human, UniProt P30872 1-391)", "T3 sequence (P30872 whole entry)": "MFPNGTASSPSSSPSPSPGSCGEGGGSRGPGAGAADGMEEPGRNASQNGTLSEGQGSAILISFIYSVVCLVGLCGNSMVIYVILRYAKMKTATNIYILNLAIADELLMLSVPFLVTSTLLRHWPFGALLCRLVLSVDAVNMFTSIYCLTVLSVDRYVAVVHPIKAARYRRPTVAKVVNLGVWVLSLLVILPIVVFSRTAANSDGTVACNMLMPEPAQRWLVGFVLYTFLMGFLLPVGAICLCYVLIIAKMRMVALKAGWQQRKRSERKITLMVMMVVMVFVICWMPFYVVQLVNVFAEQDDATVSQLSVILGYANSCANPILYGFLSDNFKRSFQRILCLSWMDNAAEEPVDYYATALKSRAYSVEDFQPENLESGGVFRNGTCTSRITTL", "assay": "radioligand competition, membranes"}, "SSTR4 [4]": {"molecular_target": "T2, SSTR4", "assay": "cell-based or functional assay", "remark": "listed apart in the source"}, "SSTR3 [5]": {"molecular_target": "T1, SSTR3", "assay": "cell-based or functional assay"}, "SSTR1 [6]": {"molecular_target": "T3, SSTR1", "assay": "cell-based or functional assay"}}, "note": "Positions of bridges follow the written chain, without caps; N, C: chain ends. No end group written: not given here. *: point of attachment. βGlcNAc = CC(=O)N[C@@H]1[C@@H](O)[C@H](O)[C@@H](CO)O[C@H]1*; diGlcNAc = diGlcNAc sugar chain; disialo = disialo sugar chain; GlcNAc = N-acetylglucosamine"}
{"binder": "SANSC(disialo)PAMC(disialo)PRERKAGCKNFFWKTFTSC (disulfide 17-28)", "note": "[N5C(disialo)•A9C(disialo)-SRIF28]", "values": [{"measurement": "binding result", "setting": "SSTR3 [1]", "value": "binds"}]}
{"binder": "SANSNPAMAPRERKAGCKNFFWKTFC(disialo sugar chain)SC (disulfide 17-28)", "note": "[T26C(disialo)-SRIF28]", "values": [{"measurement": "IC50", "setting": "SSTR5", "value": 400, "unit": "nM"}]}
{"binder": "C(disialo sugar chain)ANSC(disialo sugar chain)PAMAPRERKAGCKNFFWKTFTSC (disulfide 17-28)", "note": "[S1C(disialo)•N5C(disialo)-SRIF28]", "values": [{"measurement": "ratio of Ki to the Ki of unglycosylated SRIF14", "setting": "SSTR1-SSTR5", "value": 15.7}]}
{"binder": "C(disialo)ANSNPAMAPRERKAGCKC(GlcNAc)FFWKTFTSC (disulfide 17-28)", "note": "[S1C(disialo)•N19C(GlcNAc)-SRIF28]", "values": [{"measurement": "IC50 of agonist activity (cAMP)", "setting": "SSTR2", "value": 0.08, "unit": "nM"}]}
{"binder": "C(diGlcNAc)ANSNPAMAPRERKAGCKNFFWKTFTSC (disulfide 17-28)", "note": "[S1C(diGlcNAc)-SRIF28]", "values": [{"measurement": "IC50 of agonist activity (cAMP)", "setting": "SSTR4 [2]", "value": 0.05, "unit": "nM"}]}
{"binder": "C(βGlcNAc)ANSNPAMAPRERKAGCKNFFWKTFTSC (disulfide 17-28)", "note": "[S1C(GlcNAc)-SRIF28]", "values": [{"measurement": "IC50 of agonist activity (cAMP)", "setting": "SSTR2", "value": 0.04, "unit": "nM"}]}
{"binder": "B1", "values": [{"measurement": "Ki", "setting": "SSTR1 [3]", "value": 270, "unit": "nM"}]}
{"binder": "B2", "values": [{"measurement": "IC50 of agonist activity (cAMP)", "setting": "SSTR4 [2]", "value": 0.1, "unit": "nM"}]}
{"binder": "B3", "values": [{"measurement": "IC50 of agonist activity (cAMP)", "setting": "SSTR4 [2]", "value": 0.1, "unit": "nM"}]}
{"binder": "C(disialo)RKAGCKNFFWKTFTSC (disulfide 6-17)", "note": "[C(disialo)-R-K-SRIF14]", "values": [{"measurement": "IC50 of cAMP production suppression (agonist activity)", "setting": "SSTR4 [4]", "value": 0.05, "unit": "nM"}]}
{"binder": "C(disialo)KAGCKNFFWKTFTSC (disulfide 5-16)", "note": "[C(disialo)-K-SRIF14]", "values": [{"measurement": "IC50 of agonist activity (cAMP)", "setting": "SSTR3 [5]", "value": 0.1, "unit": "nM"}]}
{"binder": "B4", "values": [{"measurement": "IC50 of agonist activity (cAMP)", "setting": "SSTR2", "value": 0.81, "unit": "nM"}, {"measurement": "IC50 of agonist activity (cAMP)", "setting": "SSTR1 [6]", "value": 18, "unit": "nM"}, {"measurement": "IC50 of agonist activity (cAMP)", "setting": "SSTR4 [2]", "value": 0.27, "unit": "nM"}, {"measurement": "IC50 of agonist activity (cAMP)", "setting": "SSTR3 [5]", "value": 2, "unit": "nM"}]}
{"binder": "C(disialo)C(disialo)C(disialo)C(disialo)C(disialo)C(disialo)C(disialo)C(disialo)C(disialo)C(disialo)ANSNPAMAPRERKAGCKNFFWKTFTSC (disulfide 26-37)", "note": "[S1-10C(disialo)-SRIF28]", "values": [{"measurement": "IC50", "setting": "SSTR5", "value": 34.8, "unit": "nM"}]}
